Assay results reported in patent US7097972.

Target: purified poly(ADP-ribose) polymerase (PARP)

B1: purified recombinant human ICE (protein)
chain 1: NPAMPTSSGSEGNVKLCSLEEAQRIWKQKSAEIYPIMDKSSRTRLALIICNEEFDSIPRRTGAEVDITGMTMLLQNLGYSVDVKKNLTASDMTTELEAFAHRPEHKTSDSTFLVFMSHGIREGICGKKHSEQVPDILQLNAIFNMLNTKNCPSLKDKPKVIIIQACRGDSPGVVWFKD
chain 2: AIKKAHIEKDFIAFCSSTPDNVSWRHPTMGSVFIGRLIEHMQEYACSCDVEEIFRKVRFSFEQPDGRAQMPTTERVTLTRCFYLFPGH
  proteolytic cleavage of purified PARP, anti-PARP immunoblot: Purified ICE did not cleave PARP
